Our source for the screen value values is article PMC7954794, “Protein context shapes the specificity of SH3 domain-mediated interactions in vivo” (Nature Communications, 2021).

The chains are these.
B1: S. cerevisiae Abp1 (full length; SH3 domain 535-592 mutated) / Hua2 (parent)
chain 1: MALEPIDYTTHSREIDAEYLKIVRGSDPDTTWLIISPNAKKEYEPESTGSSFHDFLQLFDETKVQYGLARVSPPGSDVEKIIIIGWCPDSAPLKTRASFAANFAAVANNLFKGYHVQVTARDEDDLDENELLMKISNAAGARYSIQTSSKQQGKASTPPVKKSFTPSKSPAPVSKKEPVKTPSPAPAAKISSRVNDNNDDDDWNEPELKERDFDQAPLKPNQSSYKPIGKIDLQKVIAEEKAKEDPRLVQKPTAAGSKIDPSSDIANLKNESKLKRDSEFNSFLGTTKPPSMTESSLKNDDDKVIKGFRNEKSPAQLWAERKAKQNSGNAETKAEAPKPEVPEDEPEGEPDVKDLKSKFEGLAASEKEEEEMENKFAPPPKKSEPTIISPKPFSKPQEPVKAEEAEQPKTDYKKIGNPLPGMHIEADNEEEPEENDDDWDDDEDEAAQPPLPSRNVASGAPVQKEEPEQEEIAPSLPSRNSIPAPKQEEAPEQAPEEEIEEEAEEAAPQLPSRSSAAPPPPPRRATPEKKPKENPWATAEYDYDAAEDNELTFVENDKIINIEFVDDDWWLGELEKDGSKGLFPSNYVSLGN
chain 2: MQQTKFGKMYLDHDSVVEYSEDEIVEADRITLGYKKRLSMIENQMRHLLEDFSLDVQQIEPILADLQKYYDAFLQLLQKRNKSLQCKRSTHQPVPSPMNSQTSTNAKVNLSGKLMKFQLNSVQKFDEENILRILQNKIEFEHYFQIDKGKKQKVLLLAVYQCLNGPTRLHKVLNIEGIIHNNSIRTILGKQVSSSKWTVFLYDVKLVLLAHRQDVPNLETSKMIVRYGDLFPCALYFKDHTAY

Variants of B1 are the subject of the first experiment. As to the kind of experiment: DHFR protein-fragment complementation in yeast (Abp1-DHFR F[1,2] x partner-DHFR F[3]), deep mutational scanning, second methotrexate selection vs reference. The settings on record: with Hua2; S. cerevisiae, DHFR-PCA selection in liquid with methotrexate at 30 C, two 72 h selections (the score uses the second); reference = the pre-selection culture; not an affinity; scale: DMS score: mean over two replicates of log2(f_test/f_ref + 0.5)/ln 2, minus the synonymous-codon median.
chain 1 A545D: the screen value is -1.35. For the variant chain 1 A545L, the screen value is -2.7. Still for that read-out and setting: the figure for chain 1 A545V is -1.96. For chain 1 A545P, the screen value was -1.42. On to chain 1 A545H, for which the screen value is -1.96. Take chain 1 A545F: the screen value was -2.84. Take chain 1 A545M: the screen value is -1.83. Regarding chain 1 A545Y, the screen value was -2.53. Turning to chain 1 A545W, the screen value was -2.91. As for chain 1 E575F, the screen value is -1.16.

On to chain 1 E575T, for which the screen value is -1.44. With chain 1 E575R, the screen value was -1.6. Consider chain 1 E575P, for which the screen value was -1.33. With chain 1 E575G, the screen value was -1.41. Take chain 1 E575N: the screen value is -1.15. Same read-out and setting: the figure for chain 1 E563W is -2.93; for chain 1 E563G it is -1.92. Same read-out and setting: under chain 1 E563L stands -1.4; under chain 1 E563F, -1.96. For chain 1 E563Y, the screen value was -2.45. For chain 1 E563M, the screen value is -1.5.

On to chain 1 K558D, for which the screen value is -2.59. Take chain 1 K558N: the screen value was -1.29. As to chain 1 K558G, the screen value is -2.62. Same read-out and setting: under chain 1 K558W stands -2.78; under chain 1 D566V, -2.75. Regarding chain 1 F553V, the screen value is -1.32. With chain 1 F553S, the screen value was -2.83. As for chain 1 F553C, the screen value is -2.38. Regarding chain 1 F553Y, the screen value was -2.41. Consider chain 1 V565I, for which the screen value was -1.06.

In the case of chain 1 V565F, the screen value was -1.5.

For the variant chain 1 V565G, the screen value is -1.37. Still for that read-out and setting: under chain 1 V565E stands -2.08; under chain 1 D568C, -2.91; under chain 1 I559T, -2.21. Take chain 1 I559M: the screen value is -1.42. Same read-out and setting: under chain 1 I559S stands -1.61; under chain 1 I559F, -1.21. Same read-out and setting: the figure for chain 1 I559N is -2.48. For the variant chain 1 D542I, the screen value is -2.41. For the variant chain 1 D542L, the screen value is -1.84. Regarding chain 1 D542Y, the screen value is -1.41. In the case of chain 1 D542W, the screen value was -1.61. Regarding chain 1 D542V, the screen value was -1.37. Regarding chain 1 P584H, the screen value is -2.12. For the variant chain 1 P584A, the screen value is -2.85. Still for that read-out and setting: under chain 1 P584S stands -2.56; under chain 1 P584R, -2.94; under chain 1 P584L, -2.52. With chain 1 P584T, the screen value was -2.19. In the case of chain 1 L571G, the screen value is -1.24. In the case of chain 1 L571P, the screen value was -2.25. Same read-out and setting: under chain 1 V588T stands -2.13; under chain 1 V588M, -1.92; under chain 1 V588W, -2.8. As to chain 1 V588A, the screen value is -1.52.

In the case of chain 1 V588L, the screen value is -2.21. Consider chain 1 V588E, for which the screen value is -2.04. Take chain 1 V588G: the screen value is -2.23.

Turning to chain 1 V588D, the screen value was -2.95. With chain 1 V588I, the screen value was -2.59.

chain 1 V588F: the screen value was -2.87. On to chain 1 S579G, for which the screen value was -1.41.

For the variant chain 1 S579W, the screen value is -2.9.

For chain 1 S579I, the screen value was -1.27.

Regarding chain 1 S579D, the screen value is -1.27.

In the case of chain 1 S579Y, the screen value was -2.71. Take chain 1 S579P: the screen value was -2.21. Still for that read-out and setting: under chain 1 S579A stands -1.48; under chain 1 S579F, -2.55. On the same count and under the same terms, the figure for chain 1 E573A is -1.17; for chain 1 E573W it is -2.52; for chain 1 E573L it is -2.11. On the same count and under the same terms, the figure for chain 1 E573R is -1.65; for chain 1 E573G it is -2.56; for chain 1 E573D it is -1.16. For chain 1 E573K, the screen value is -1.32. Take chain 1 F564S: the screen value is -2.74. Consider chain 1 F564W, for which the screen value is -2.35. Regarding chain 1 F564V, the screen value was -2.3. chain 1 F564A: the screen value is -2.55. Same read-out and setting: under chain 1 F564G stands -2.97; under chain 1 F564C, -1.62. Regarding chain 1 F564D, the screen value is -2.53. For chain 1 F564I, the screen value is -1.74. Still for that read-out and setting: under chain 1 F564N stands -2.93; under chain 1 F564L, -1.7; under chain 1 F564T, -2.07.

For chain 1 D567Y, the screen value is -1.92. Turning to chain 1 E555W, the screen value was -1.84. For the variant chain 1 L590H, the screen value is -2.44.

On to chain 1 L590R, for which the screen value was -2.85. Same read-out and setting: under chain 1 L590S stands -2.63. chain 1 L590Y: the screen value was -1.64. With chain 1 L590Q, the screen value was -2.62. On the same count and under the same terms, under chain 1 L590T stands -2.55; under chain 1 L590A, -2.75; under chain 1 L590E, -2.84. chain 1 L590P: the screen value is -1.72. chain 1 L590W: the screen value was -1.2. On the same count and under the same terms, under chain 1 L590C stands -2.24; under chain 1 L590K, -2.78; under chain 1 Y543K, -2.96. As to chain 1 Y543N, the screen value was -1.79.

Consider chain 1 Y543S, for which the screen value is -2.67. Consider chain 1 Y543C, for which the screen value is -2.15. chain 1 Y543D: the screen value is -2.57. On to chain 1 Y543Q, for which the screen value is -2.77.

Regarding chain 1 N561M, the screen value is -2.43. In the case of chain 1 N561G, the screen value is -1.4. The same measure, in the same setting: the figure for chain 1 N561R is -2.12; for chain 1 N561E it is -1.17; for chain 1 N561C it is -2.22. As to chain 1 N561S, the screen value is -2.28.

chain 1 N561T: the screen value is -1.97. On the same count and under the same terms, the figure for chain 1 N561Y is -2.5; for chain 1 N561Q it is -1.98. For the variant chain 1 N561I, the screen value was -1.97. The same measure, in the same setting: the figure for chain 1 N561A is -2.29; for chain 1 A546P it is -2.02. chain 1 K580D: the screen value was -2.63. On to chain 1 K580Y, for which the screen value is -1.88.

Regarding chain 1 K580G, the screen value was -2.39.

Consider chain 1 K580W, for which the screen value was -1.55. As to chain 1 T552Y, the screen value is -2.8. As to chain 1 T552F, the screen value was -2.87. Consider chain 1 T552V, for which the screen value was -2.72.

On to chain 1 T552C, for which the screen value was -1.73.

Regarding chain 1 T552I, the screen value was -1.99. For the variant chain 1 T552M, the screen value is -2.22. chain 1 T552P: the screen value is -2.02. Regarding chain 1 T552Q, the screen value was -1.13. In the case of chain 1 T552E, the screen value is -1.32. chain 1 L551T: the screen value is -2.85.

As to chain 1 L551R, the screen value is -2.52.

As for chain 1 L551P, the screen value is -1.38. For chain 1 L551F, the screen value was -2.93. Take chain 1 L551E: the screen value is -2.9. As to chain 1 L551Q, the screen value was -2.06. Still for that read-out and setting: the figure for chain 1 L551V is -1.51. Regarding chain 1 G581R, the screen value is -2.96.

With chain 1 G581A, the screen value was -2.84. Turning to chain 1 G581S, the screen value is -2.77.

chain 1 G581D: the screen value was -2.22. With chain 1 G581V, the screen value was -2.59. Take chain 1 G581C: the screen value was -2.66.

In the case of chain 1 I562S, the screen value is -2.46. In the case of chain 1 I562T, the screen value is -2.61. On the same count and under the same terms, the figure for chain 1 I562W is -2.85; for chain 1 I562C it is -2.84; for chain 1 I562N it is -1.85. Regarding chain 1 I562F, the screen value was -2.51. Still for that read-out and setting: under chain 1 I562M stands -1.57. As to chain 1 E550V, the screen value was -2.76. For the variant chain 1 E550D, the screen value was -1.79.

Staying with this experiment, now noted: with Hua2; S. cerevisiae, DHFR-PCA selection in liquid with methotrexate at 30 C, two 72 h selections (the score uses the second); reference = the pre-selection culture; not an affinity; value at the no-binding floor (a bound); scale: DMS score: mean over two replicates of log2(f_test/f_ref + 0.5)/ln 2, minus the synonymous-codon median.
For the variant chain 1 D566W, the screen value is less than -3.06. On the same count and under the same terms, the figure for chain 1 D566I is less than -3.06; for chain 1 D566P it is less than -3.06. For the variant chain 1 D566L, the screen value was less than -3.06. In the case of chain 1 D568P, the screen value is less than -3.06. chain 1 D567W: the screen value is less than -3.06. Consider chain 1 D567L, for which the screen value was less than -3.06. Still for that read-out and setting: the figure for chain 1 D567F is -2.99. On to chain 1 E550M, for which the screen value was less than -3.06. As for chain 1 E550L, the screen value is less than -3.06. Consider chain 1 E550C, for which the screen value was less than -3.06.
